# Publication PMC9186387
# Read-outs that look alike come from different tables or passages of the source.
# T1: DriD(Y168A-R178A-Y192A-R204A) (Caulobacter crescentus, UniProt Q9A999 5-331, Y172A;R182A;Y196A;R208A)
# T1 sequence: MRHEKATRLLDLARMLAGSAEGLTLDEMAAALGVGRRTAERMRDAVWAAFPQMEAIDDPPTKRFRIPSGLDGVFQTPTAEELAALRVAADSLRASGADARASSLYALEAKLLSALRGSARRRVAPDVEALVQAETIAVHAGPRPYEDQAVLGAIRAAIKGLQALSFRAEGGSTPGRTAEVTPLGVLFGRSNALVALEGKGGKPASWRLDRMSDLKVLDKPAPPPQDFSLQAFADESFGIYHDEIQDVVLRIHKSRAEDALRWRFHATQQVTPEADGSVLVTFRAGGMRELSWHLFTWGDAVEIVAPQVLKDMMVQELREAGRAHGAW
# T2: DriD(R176A-R178A) (Caulobacter crescentus, UniProt Q9A999 5-331, R180A;R182A)
# T2 sequence: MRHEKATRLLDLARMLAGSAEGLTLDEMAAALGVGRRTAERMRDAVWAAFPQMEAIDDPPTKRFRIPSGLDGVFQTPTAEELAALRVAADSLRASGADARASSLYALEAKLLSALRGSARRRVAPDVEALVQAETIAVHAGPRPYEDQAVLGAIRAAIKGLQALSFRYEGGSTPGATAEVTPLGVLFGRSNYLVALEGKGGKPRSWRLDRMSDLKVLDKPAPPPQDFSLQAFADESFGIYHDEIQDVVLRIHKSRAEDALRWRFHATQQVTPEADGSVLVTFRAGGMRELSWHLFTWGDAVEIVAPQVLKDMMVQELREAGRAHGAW
# T3: DriD(Y168A) (Caulobacter crescentus, UniProt Q9A999 5-331, Y172A)
# T3 sequence: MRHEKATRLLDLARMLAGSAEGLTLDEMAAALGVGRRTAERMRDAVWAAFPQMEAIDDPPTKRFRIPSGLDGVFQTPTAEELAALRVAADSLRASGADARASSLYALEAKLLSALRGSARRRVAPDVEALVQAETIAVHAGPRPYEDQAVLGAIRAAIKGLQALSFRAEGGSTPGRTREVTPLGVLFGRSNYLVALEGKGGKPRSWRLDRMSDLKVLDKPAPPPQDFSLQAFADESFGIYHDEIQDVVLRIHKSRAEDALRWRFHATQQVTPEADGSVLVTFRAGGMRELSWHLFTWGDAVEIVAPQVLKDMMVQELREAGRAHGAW
# Columns and labels:
# [1] = target: C. crescentus full-length DriD (C. crescentus); test: SEC
# [2] = target: T1, DriD(Y168A-R178A-Y192A-R204A); test: fluorescence polarization
# [3] = target: T2, DriD(R176A-R178A); test: fluorescence polarization
# [4] = target: T1, DriD(Y168A-R178A-Y192A-R204A); test: fluorescence polarization; remark: listed apart in the source
# [5] = target: T3, DriD(Y168A); test: fluorescence polarization
molecule,measurement,setting,value
C. crescentus full-length DriD (natural protein),stoichiometry N,[1],2
TAGTCTACT (ssDNA) [9mer ssDNA (F-labelled)],binding result,[2],no binding
same,binding result,[3],no binding
DriD operator (optimized) (dsDNA) DNA 1: ATACGACCGTTTCTGTCGCA DNA 2: TGCGACAGAAACGGTCGTAT,binding result,[4],no binding
same,Kd,[5],22.3 ± 7 nM
